For test [1], the target named is T1, recombinant human Her2 ECD (Human Her2/ErbB2 protein, catalog #10004-HCCH, Sino Biological Inc.) (human, UniProt P04626 23-652).
T1 construct: extracellular domain; also called HER2 antigen; HER2 target
The test is described as follows: SPR (Biacore T200), HER2 ECD immobilised on CM5, anti-HER2/CD3 TDB as analyte.

The target of test [2] is T1, recombinant human Her2 ECD (Human …). As to the kind of experiment: SPR (Biacore), conditions of Example 1, human Her2 ECD immobilized on CM5 chip.
For test [3] the target is unchanged. As to the kind of experiment: SPR (Biacore), conditions of Example 1, HER2 ECD immobilized on CM5 chip.

We go through one molecule from patent US20180094056A1 (Genentech, published 2018).

B1: 4D5v3-40G5 anti-HER2/CD3 TDB (bispecific antibody, V domains shown)
VH 1: not shown
VL 1: not shown
VH 2: EVQLVQSGAEVKKPGASVKVSCKASGYTFTNYYIHWVRQAPGQGLEWIGWIYPGDGNTKYNEKFKGRATLTADTSTSTAYLELSSLRSEDTAVYYCARDSYSNYYFDYWGQGTLVTVSS
VL 2: DIVMTQSPDSLAVSLGERATINCKSSQSLLNSRTRKNYLAWYQQKPGQPPKLLIYWASTRESGVPDRFSGSGSGTDFTLTISSLQAEDVAVYYCTQSFILRTFGQGTKVEIK
notes: also called HER2 TDB
On to B1, for which the “fold affinity relative to wildtype 4D5 TDB” value in test [1] is ~10 fold. Moreover, the Kd in test [2] is 0.04 nM; in test [3], 0.06 nM.
